{
  "source": "patent US6319955A",
  "about": "“Use of MEK1 inhibitors as protective agents against damage due to ischemia” (priority 2000, dated 2001)",
  "origin": "cited, not measured here",
  "molecules": {"B1": {"name": "C84S tPA (protein, UniProt P00750 36-562, looked up, variant C84S)", "Tissue-type plasminogen …": "SYQVICRDEKTQMIYQQHQSWLRPVLRSNRVEYCWCNSGRAQCHSVPVKSCSEPRCFNGGTCQQALYFSDFVCQCPEGFAGKCSEIDTRATCYEDQGISYRGTWSTAESGAECTNWNSSALAQKPYSGRRPDAIRLGLGNHNYCRNPDRDSKPWCYVFKAGKYSSEFCSTPACSEGNSDCYFGNGSAYRGTHSLTESGASCLPWNSMILIGKVYTAQNPSAQALGLGKHNYCRNPDGDAKPWCHVLKNRRLTWEYCDVPSCSTCGLRQYSQPQFRIKGGLFADIASHPWQAAIFAKHRRSPGERFLCGGILISSCWILSAAHCFQERFPPHHLTVILGRTYRVVPGEEEQKFEVEKYIVHKEFDDDTYDNDIALLQLKSDSSRCAQESSVVRTVCLPPADLQLPDWTECELSGYGKHEALSPFYSERLKEAHVRLYPSSRCTSQHLLNRTVTDNMLCAGDTRSGGPQANLHDACQGDSGGPLVCLNDGRMTLVGIISWGLGCGQKDVPGVYTKVTNYLDWIRDNMRP"}},
  "details": "compared with native tPA",
  "data": [
    {"molecule": "B1", "values": [
      {"measurement": "in vivo half life, in words", "result": "longer in vivo half life than native tPA"}
    ]}
  ]
}
